Test results published in the supplement of paper PMC7125110.
± gives the standard error. For some of these results: Fewer inactive variants are shown than the library holds.

B1: glmS ribozyme (parent)
chain: AUAAAAGCGCCAGAACUACAGAAAUGUAGUUGACGAGGAGGAGGUUUAUCGAAUUUUCGGCGGAUGCCUCCAAA

How the values were obtained:
Settings in all cases: with glucosamine-6-phosphate
[1] = variants of: B1; assay: kcat; higher = faster cleavage; RNA array
Procedure, shortened: (§1)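 Barcoded glmS ribozyme variants on sequenced MiSeq chips were transcribed in situ by E. coli RNA polymerase and tracked through a hybridised Cy3 probe at 37 °C. Glucosamine-6-phosphate (40 μM to 10 mM) in HEPES/KCl/Mg(OAc)2 buffer was flowed in, and tiles were imaged over ~14 h. Signals were normalised to baseline and to non-cleaving reference variants; per-tile medians were fit to one- or two-exponential decays to give kobs. kcat and KM came from weighted Michaelis–Menten fits across concentrations.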

[2] = variants of: B1; assay: KM; higher = weaker cofactor use; RNA array
Procedure, shortened: as §1

[3] = variants of: B1; assay: self-cleavage kobs at 160 uM GlcN6P; higher = faster cleavage; RNA array
Procedure, shortened: as §1

[4] = variants of: B1; assay: self-cleavage kobs at 2500 uM GlcN6P; higher = faster cleavage; RNA array
Procedure, shortened: as §1

[5] = variants of: B1; assay: self-cleavage kobs at 10000 uM GlcN6P; higher = faster cleavage; RNA array
Procedure, shortened: as §1

[6] = variants of: B1; assay: self-cleavage kobs at 640 uM GlcN6P; higher = faster cleavage; RNA array
Procedure, shortened: as §1

[7] = variants of: B1; assay: self-cleavage kobs at 40 uM GlcN6P; higher = faster cleavage; RNA array
Procedure, shortened: as §1

Variant | kcat [1] [s⁻¹] | KM [2] [µM] | self-cleavage kobs at 160 uM GlcN6P [3] [s⁻¹] | self-cleavage kobs at 2500 uM GlcN6P [4] [s⁻¹] | self-cleavage kobs at 10000 uM GlcN6P [5] [s⁻¹] | self-cleavage kobs at 640 uM GlcN6P [6] [s⁻¹] | self-cleavage kobs at 40 uM GlcN6P [7] [s⁻¹]
A53U U56C C71U | 0.00121 ± 0.00019 | 4240 ± 1000 | 4.8e-05 ± 1.3e-05 | 0.000406 ± 9.1e-05 | 0.000903 ± 0.0002 |  | 
A6C C70A | 1.39e-05 ± 2.5e-06 |  |  |  |  |  | 
U55G C68G | 9.78e-05 ± 1e-05 | 345 ± 170 |  | 7.64e-05 ± 1.5e-05 | 0.000104 ± 1.7e-05 | 6.54e-05 ± 1.3e-05 | 
G41C U56A | 0.000159 ± 4.4e-05 |  |  | 0.000129 ± 3e-05 | 0.000121 ± 1.5e-05 | 2.18e-05 ± 1e-05 | 
C8U G38A | < 1e-05 | 371 ± 120 |  |  |  |  | < 1e-05
U30C U54C | 0.000253 ± 0.00011 |  | 4.17e-05 ± 1.8e-05 | 9.4e-05 ± 2.7e-05 | 0.000271 ± 4.1e-05 | 7.76e-05 ± 1.2e-05 | 
G40U U45A | 0.0022 ± 0.00057 | 1030 ± 420 | 0.000265 ± 4.2e-05 | 0.00235 ± 0.00023 | 0.00154 ± 0.00024 | 0.00081 ± 0.0001 | 8.3e-05 ± 1.1e-05
U55G C71A | 0.00224 ± 0.00065 | 528 ± 220 | 0.000541 ± 0.00013 | 0.00315 ± 0.00085 |  | 0.00113 ± 0.00015 | 0.000162 ± 2.2e-05
U54C C71A | 0.00379 ± 0.00088 | 1580 ± 530 | 0.000296 ± 4.1e-05 | 0.00192 ± 0.00026 | 0.0039 ± 0.00049 | 0.00133 ± 0.00019 | 0.000112 ± 1.4e-05
A15U G32U | 0.00104 ± 0.0003 | 6790 ± 2800 |  | 0.000266 ± 2.9e-05 | 0.000628 ± 6.4e-05 | 0.000103 ± 1.2e-05 | 
C50G G51A G59U C70G | 0.000102 ± 2.5e-05 |  | 9.16e-05 ± 3.2e-05 | 7.99e-05 ± 2e-05 |  | 0.000132 ± 2.9e-05 | 
G13U C16G | 0.000981 ± 0.00012 | 5170 ± 950 |  | 0.000305 ± 6e-05 | 0.000653 ± 0.0001 | 0.000112 ± 1.7e-05 | 
A14U C50U | 4.31e-05 ± 1.5e-06 | 1180 ± 170 |  | 3.01e-05 ± 1.1e-05 | 3.81e-05 ± 1.1e-05 |  | 
U69A C71G | 3.77e-05 ± 9.7e-06 |  |  | 4.01e-05 ± 9.2e-06 |  | 5.27e-05 ± 1.5e-05 | 
A52C | 2.8e-05 ± 8.9e-07 | 835 ± 150 | < 1e-05 | 2.17e-05 ± 1.5e-06 | 2.56e-05 ± 1.3e-06 | 1.03e-05 ± 3.3e-06 | < 1e-05
G59U U65G | < 1e-05 |  |  |  |  | < 1e-05 | 
